Experiments:
[1] = molecular target: T1, corin variant Q568P (Homo sapiens, UniProt Q9Y5Q5, Q568P); assay: PCSK6-mediated corin activation in HEK293 cells, corin variant Q568P; format: cell-based; conditions: Western
T1 construct: expressed in transfected cells; host or cells: HEK293
T1 sequence (Q9Y5Q5 1-1042 Q568P): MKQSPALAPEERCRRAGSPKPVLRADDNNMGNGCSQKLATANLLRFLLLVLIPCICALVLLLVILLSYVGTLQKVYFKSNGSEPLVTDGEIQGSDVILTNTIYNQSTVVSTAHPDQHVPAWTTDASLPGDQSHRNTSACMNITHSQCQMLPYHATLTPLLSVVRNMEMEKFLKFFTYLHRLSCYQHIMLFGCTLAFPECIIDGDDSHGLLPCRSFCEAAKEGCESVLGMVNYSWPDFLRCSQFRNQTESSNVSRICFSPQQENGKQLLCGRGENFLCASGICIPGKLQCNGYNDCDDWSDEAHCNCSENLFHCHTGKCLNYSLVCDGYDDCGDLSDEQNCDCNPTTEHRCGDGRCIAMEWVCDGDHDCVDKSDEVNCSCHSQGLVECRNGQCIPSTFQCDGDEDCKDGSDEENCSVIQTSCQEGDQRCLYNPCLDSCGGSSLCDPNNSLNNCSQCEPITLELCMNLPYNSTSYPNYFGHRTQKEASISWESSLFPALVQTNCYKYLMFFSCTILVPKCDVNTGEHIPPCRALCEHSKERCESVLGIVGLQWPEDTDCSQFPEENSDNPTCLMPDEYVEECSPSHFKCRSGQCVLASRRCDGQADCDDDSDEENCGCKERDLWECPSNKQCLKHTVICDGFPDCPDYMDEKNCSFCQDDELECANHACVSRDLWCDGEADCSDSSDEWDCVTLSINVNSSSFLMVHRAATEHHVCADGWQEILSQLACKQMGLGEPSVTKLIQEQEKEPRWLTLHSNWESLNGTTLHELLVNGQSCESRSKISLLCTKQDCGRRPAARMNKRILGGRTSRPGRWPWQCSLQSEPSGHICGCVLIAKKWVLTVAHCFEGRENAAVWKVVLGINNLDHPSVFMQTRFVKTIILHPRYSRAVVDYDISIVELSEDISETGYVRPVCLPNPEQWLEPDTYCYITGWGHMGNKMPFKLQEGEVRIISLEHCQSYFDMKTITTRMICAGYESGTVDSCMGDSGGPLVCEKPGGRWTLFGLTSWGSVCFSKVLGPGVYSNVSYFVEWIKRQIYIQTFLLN
Source text: (§1) Plasmids expressing human corin WT and mutants R801A, S985A, T555I, Q568P, T555I/Q568P, K317E, S472G and R539C were reported previously. Dong, N. et al., J Biol Chem 289, 17909-17916 (2014); Knappe et al., J Biol Chem 278, 52363-52370 (2003); Wu et al., J Biol Chem 277, 16900-16905. (2002). Plasmids expressing human PCSK1-9 were made by cloning respective cDNAs into pcNDA3.1 vector. Recombinant corin and PCSK proteins encoded by these plasmids contained a C-terminal V5 or flag tag for protein detection in Western blotting.
(§2) HEK293 and HL-1 cells were transfected with corin or PCSK6 expression plasmids. After 48-72 h, cells were lysed in a buffer containing 25 mM Tris-HCl, pH 7.4, 150 mM NaCl, 1 mM EDTA, 1% (v/v) NP-40, and 1% (v/v) protease inhibitor cocktail. Recombinant corin and PCSK6 proteins were immunoprecipitated with an anti-V5 or anti-flag antibody. Western blotting was carried out to analyze corin expression and activation or PCSK6 expression with or without reducing agents. Percentage of corin activation (corin-p vs. corin fragments) was quantified by densitometric analysis of Western blots.

[2] = molecular target: T2, corin mutant R539C (Homo sapiens, UniProt Q9Y5Q5, R539C); assay: PCSK6-mediated corin activation in HEK293 cells, corin mutant R539C; format: cell-based; conditions: Western, densitometry
T2 construct: expressed in transfected cells; host or cells: HEK293
T2 sequence (Q9Y5Q5 1-1042 R539C): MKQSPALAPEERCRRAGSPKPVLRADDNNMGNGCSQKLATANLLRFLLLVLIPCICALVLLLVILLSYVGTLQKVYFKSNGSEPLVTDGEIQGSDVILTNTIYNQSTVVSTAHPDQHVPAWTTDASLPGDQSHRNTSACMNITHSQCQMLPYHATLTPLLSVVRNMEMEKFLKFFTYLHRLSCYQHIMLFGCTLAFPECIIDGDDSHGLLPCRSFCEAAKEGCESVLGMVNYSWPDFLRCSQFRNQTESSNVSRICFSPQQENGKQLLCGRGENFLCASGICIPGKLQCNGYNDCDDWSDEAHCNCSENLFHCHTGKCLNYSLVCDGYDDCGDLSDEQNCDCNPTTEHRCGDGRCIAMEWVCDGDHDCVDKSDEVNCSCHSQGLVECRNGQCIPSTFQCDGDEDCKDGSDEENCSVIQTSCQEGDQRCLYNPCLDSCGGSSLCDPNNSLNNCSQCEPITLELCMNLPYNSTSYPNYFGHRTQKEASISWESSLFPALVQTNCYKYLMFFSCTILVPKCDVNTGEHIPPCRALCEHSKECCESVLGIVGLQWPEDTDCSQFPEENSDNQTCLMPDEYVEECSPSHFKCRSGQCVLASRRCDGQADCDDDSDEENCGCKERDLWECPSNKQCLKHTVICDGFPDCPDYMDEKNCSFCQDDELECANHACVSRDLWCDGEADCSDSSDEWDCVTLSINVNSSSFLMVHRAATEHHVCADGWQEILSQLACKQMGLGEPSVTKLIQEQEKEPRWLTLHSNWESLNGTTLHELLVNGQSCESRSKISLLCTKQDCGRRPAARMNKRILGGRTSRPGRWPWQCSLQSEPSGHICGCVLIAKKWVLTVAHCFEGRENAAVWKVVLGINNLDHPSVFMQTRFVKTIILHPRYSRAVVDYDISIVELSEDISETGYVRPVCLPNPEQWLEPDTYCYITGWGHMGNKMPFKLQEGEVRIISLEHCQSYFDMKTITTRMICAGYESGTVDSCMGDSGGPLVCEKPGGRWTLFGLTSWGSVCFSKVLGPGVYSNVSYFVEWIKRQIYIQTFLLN
Source text: as §1, §2

PCSK6-mediated activation cleavage [1]: detected
reduction in PCSK6-mediated corin activation compared with WT corin [2]: 62%
B1: proprotein convertase subtilisin/kexin-6 (protein, listed as Homo sapiens)
chain: MPPRAPPAPGPRPPPRAAAATDTAAGAGGAGGAGGAGGPGFRPLAPRPWRWLLLLALPAACSAPPPRPVYTNHWAVQVLGGPAEADRVAAAHGYLNLGQIGNLEDYYHFYHSKTFKRSTLSSRGPHTFLRMDPQVKWLQQQEVKRRVKRQVRSDPQALYFNDPIWSNMWYLHCGDKNSRCRSEMNVQAAWKRGYTGKNVVVTILDDGIERNHPDLAPNYDSYASYDVNGNDYDPSPRYDASNENKHGTRCAGEVAASANNSYCIVGIAYNAKIGGIRMLDGDVTDVVEAKSLGIRPNYIDIYSASWGPDDDGKTVDGPGRLAKQAFEYGIKKGRQGLGSIFVWASGNGGREGDYCSCDGYTNSIYTISVSSATENGYKPWYLEECASTLATTYSSGAFYERKIVTTDLRQRCTDGHTGTSVSAPMVAGIIALALEANSQLTWRDVQHLLVKTSRPAHLKASDWKVNGAGHKVSHFYGFGLVDAEALVVEAKKWTAVPSQHMCVAASDKRPRSIPLVQVLRTTALTSACAEHSDQRVVYLEHVVVRTSISHPRRGDLQIYLVSPSGTKSQLLAKRLLDLSNEGFTNWEFMTVHCWGEKAEGQWTLEIQDLPSQVRNPEKQGKLKEWSLILYGTAEHPYHTFSAHQSRSRMLELSAPELEPPKAALSPSQVEVPEDEEDYTAQSTPGSANILQTSVCHPECGDKGCDGPNADQCLNCVHFSLGSVKTSRKCVSVCPLGYFGDTAARRCRRCHKGCETCSSRAATQCLSCRRGFYHHQEMNTCVTLCPAGFYADESQKNCLKCHPSCKKCVDEPEKCTVCKEGFSLARGSCIPDCEPGTYFDSELIRCGECHHTCGTCVGPGREECIHCAKNFHFHDWKCVPACGEGFYPEEMPGLPHKVCRRCDENCLSCAGSSRNCSRCKTGFTQLGTSCITNHTCSNADETFCEMVKSNRLCERKLFIQFCCRTCLLAG
modifications: C-terminal FLAG tag
